From PMC4300955 come the findings set out here.

For the test, the target named is 53BP1 (UniProt Q12888). As to the kind of experiment: co-immunoprecipitation, Western blot. Particulars: reference: wild type MOF, 3-6 h after 10 Gy; sites T392. In general terms: Immunoblotting shows a protein as a band on a membrane.

“MOF (hMOF) (from UniProt Q9H7Z6) MOF-T392A, 3-6 h after 10 Gy”: the “binding against the reference” value was “stronger”.
